Test results: PMC5726764 (Biotechnology and bioengineering, 2017)
Read-outs that look alike come from different tables or passages of the source.

Tests used:
[1] = target: scFv-2D10, single-chain antibody of mAb 2D10; test: ITC
[2] = target: scFv-1 (120_6290_1), de novo designed single-chain antibody; test: ITC
[3] = target: scFv-2 (120_15439_2), de novo designed single-chain antibody; test: BLI
[4] = target: scFv-2 (120_15439_2), de novo designed single-chain antibody; test: BLI; remark: listed apart in the source
[5] = target: scFv-1 (120_6290_1), de novo designed single-chain antibody; test: BLI
[6] = target: scFv-4 (140_15899_5), de novo designed single-chain antibody; test: BLI
[7] = target: scFv-2 (120_15439_2), de novo designed single-chain antibody; test: BLI; remark: listed apart in the source
[8] = target: scFv-2 (120_15439_2), de novo designed single-chain antibody; test: BLI; remark: listed apart in the source
[9] = target: T1, dodecapeptide antigen DVFYPYPYASGS (as used in biolayer interferometry) (synthetic peptide); test: BLI
T1 chain: DVFYPYPYASGS

B1: dodecapeptide antigen …, not conjugated to BSA (as used in ITC) (peptide)
peptide: DVFYPYPYASGS
[1]
  Kd: 1 nM
  stoichiometry N: 1
[2]
  stoichiometry N: 1

B2: dodecapeptide antigen … (as used in biolayer interferometry) (peptide)
peptide: DVFYPYPYASGS
[3]
  Kd: 17.5 nM
[4]
  Kd: 14.4 nM
  kobs: 0.0041 s⁻¹
  koff: 0.00132 s⁻¹
[5]
  Kd: 8.9 nM
  kobs: 0.0033 s⁻¹
[6]
  Kd: 23.8 nM
  kobs: 0.0039 s⁻¹
  koff: 0.00171 s⁻¹
[7]
  Kd: 2.55 nM
[8]
  Kd: 21.5 nM

B3: scFv-2D10, single-chain antibody of mAb 2D10 (scFv, V domains shown)
VH: EIQLQQSGPELVKPGASVKISCKASGYSFTDYIMLWVKQSHGKSLEWIGNINPYYGSTSYNLKFKGKATLTVDKSSSTAYMQLNSLTSEDSAVYYCARKNYYGSSLDYWGQGTTLTVSS
VL: DVVMTQTPFSLPVSLGDQASISCRSSQSLVHSNGNTYLHWYLQKPGQSPKLLIYKVSNRFSGVPDRFSGSGSGTDFTLKISRVEAEDLGVYFCSQSTHVPYTFGGGTKLEIK
[9]
  Kd: 3.8 nM
  kon: 206000 M⁻¹ s⁻¹
